{"source": "paper PMC2700515", "about": "(The Journal of Cell Biology, 2009)", "key": {"[1]": {"biological_target": "T1, hCen3, purified (GST removed) (human, UniProt O15182 1-167)", "T1 sequence": "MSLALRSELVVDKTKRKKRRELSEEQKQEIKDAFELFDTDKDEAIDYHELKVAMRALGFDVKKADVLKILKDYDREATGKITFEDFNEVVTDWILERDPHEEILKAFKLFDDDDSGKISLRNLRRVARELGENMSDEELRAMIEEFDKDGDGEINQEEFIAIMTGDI", "experiment": "pull-down"}, "[2]": {"biological_target": "T2, hCen2, purified (GST removed) (human, UniProt P41208 1-172)", "T2 sequence": "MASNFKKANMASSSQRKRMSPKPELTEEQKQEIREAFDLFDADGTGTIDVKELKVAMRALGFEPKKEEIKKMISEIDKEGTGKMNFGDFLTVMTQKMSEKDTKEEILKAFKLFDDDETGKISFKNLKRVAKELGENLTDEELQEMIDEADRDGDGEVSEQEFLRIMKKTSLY", "experiment": "pull-down"}}, "data": [{"binder": "GST-hPOC5 CBR2+3 (aa 222-304) (domain or fragment) EISIGRKDEVISSLSHAIGKQKEKIELMRTFFHWRIGHVRARQDVYEGKLADQYYQRTLLKKVWKVWRSVVQKQWKDVVERAC", "values": [{"measurement": "binding result", "setting": "[1]", "result": "binds"}, {"measurement": "binding result", "setting": "[2]", "result": "binds"}]}]}
